# ± gives the standard deviation of the averaged measurements.
# B1: library; a variant is named by its letters at N, in order (parent)
# chain: GCUGUCACCGGUGCUUGGUACGUUAUAUUCAGCCGGUCUGAUGAGUCUNNNNNNAGACGAAACAGC
# Experiments:
# [1] = variants of: B1; assay: normalized RNA/DNA level without ligand (relative to sTRSVctl = 100) (log10 (% of sTRSVctl)); HEK293T overexpressing SLC46A1; higher = less ribozyme self-cleavage, higher mRNA level; details: without (6R,S)-folinic acid; ligand present: no
# In short: (§1)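 Library plasmids encoding reporter-linked ribozyme switches (mCherry, or eGFP for some folinic acid experiments) were transfected into HEK293T at 4 µg per 6-well well. Ligand, when used, was added 1 h before transfection. Total RNA was extracted with EDTA 72 h later, then reverse-transcribed, amplified, barcoded and sequenced. RNA level was RNA reads over DNA reads, divided by a spiked-in non-cleaving control (or the top 25 sequences), ×100, log10; only sequences with ≥100 DNA reads were kept.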
# [2] = variants of: B1; assay: normalized RNA/DNA level with ligand (relative to sTRSVctl = 100) (log10 (% of sTRSVctl)); HEK293T overexpressing SLC46A1; ligand concentration (+) RNA-Seq: 6 mM; higher = less ribozyme self-cleavage, higher mRNA level; details: with (6R,S)-folinic acid; ligand present: yes
# In short: as §1
Variant,normalized RNA/DNA level without ligand (log10) [1],normalized RNA/DNA level with ligand (log10) [2]
UGAUAU,1.92 ± 0.034,1.984 ± 0.014
UGAUAG,1.7093 ± 0.0017,1.96 ± 0.049
CGCACC,2.079 ± 0.014,2.07 ± 0.063
CGCACU,2.0385 ± 0.00015,2.01 ± 0.034
CGCACG,2.046 ± 0.0062,2.026 ± 0.018
CGCACA,1.989 ± 0.0068,1.98 ± 0.026
UGCCGU,2.009 ± 0.019,2.02 ± 0.042
UGCCGC,2.03 ± 0.031,2.02 ± 0.048
UGCCGA,1.9547 ± 0.0011,2.02 ± 0.046
CGAUUU,1.984 ± 0.0069,2 ± 0.026
CGAUUC,2.089 ± 0.019,2.08 ± 0.048
CGAUUG,2.028 ± 0.018,2.02 ± 0.035
CGAUUA,1.958 ± 0.017,1.992 ± 0.013
AGCUAU,1.987 ± 0.014,2.009 ± 0.018
AGCUAC,2.029 ± 0.012,2.01 ± 0.063
AGCUAA,2 ± 0.033,1.999 ± 0.0025
AGCUAG,1.935 ± 0.002,2.01 ± 0.025
UGCGAA,1.966 ± 0.011,1.97 ± 0.029
AGCCAU,1.986 ± 0.013,1.99 ± 0.029
AGCCAG,1.985 ± 0.0073,2.04 ± 0.035
AGCCAC,2.016 ± 0.003,2 ± 0.037
AGCCAA,1.9858 ± 0.00027,1.99 ± 0.037
UGCAAC,1.95 ± 0.0091,1.99 ± 0.029

Variant,normalized RNA/DNA level without ligand (log10) [1],normalized RNA/DNA level with ligand (log10) [2]
UGCAAG,1.778 ± 0.01,1.96 ± 0.029
UGAGUU,1.943 ± 0.0073,1.99 ± 0.035
UGAGUC,2.011 ± 0.012,2 ± 0.049
CGCAGG,1.953 ± 0.012,2.03 ± 0.039
CGCAGU,2.037 ± 0.015,2.04 ± 0.049
CGCAGA,2.039 ± 0.0068,2.051 ± 0.015
UGCACG,1.8081 ± 0.0015,1.977 ± 0.013
UGCACU,2.017 ± 0.0058,2.04 ± 0.033
UGCACC,2.036 ± 0.0046,1.98 ± 0.028
UGCACA,1.97 ± 0.024,2.01 ± 0.036
GGAGUC,2.02 ± 0.023,2.01 ± 0.024
GGAGUU,2.011 ± 0.0026,2.05 ± 0.039
GGAGUG,1.915 ± 0.004,2.01 ± 0.029
GGCCGG,2.08 ± 0.021,2.051 ± 0.015
GGCCGA,2.081 ± 0.0077,2.05 ± 0.037
GGCCGC,2.073 ± 0.012,2.083 ± 0.011
GGCCGU,2.0789 ± 0.0012,2.02 ± 0.007
AGCGGC,2.104 ± 0.0038,2.05 ± 0.039
AGCGGG,2.004 ± 0.016,2.055 ± 0.019
AGCGGA,2.024 ± 0.0064,2.024 ± 0.01
UGAUGC,1.954 ± 0.013,1.998 ± 0.01
AGCGUU,2 ± 0.021,2.015 ± 0.0096
AGCGUA,1.973 ± 0.0096,2 ± 0.028

Variant,normalized RNA/DNA level without ligand (log10) [1],normalized RNA/DNA level with ligand (log10) [2]
AGCGUG,1.92 ± 0.023,2.02 ± 0.03
AGCGUC,2.083 ± 0.0033,2.06 ± 0.037
GGCCCA,2.053 ± 0.01,2.032 ± 0.012
GGCCCC,2.023 ± 0.0026,2.01 ± 0.026
GGCCCU,2.099 ± 0.012,2.061 ± 0.013
GGCCCG,2.07 ± 0.0078,2.07 ± 0.023
UGCCUC,2.065 ± 0.0067,2 ± 0.065
UGCCUA,2.03 ± 0.023,2.03 ± 0.023
UGCCUU,2.0129 ± 0.0012,2.011 ± 0.018
GGCCAC,2.022 ± 0.0039,1.99 ± 0.016
GGCCAG,2.037 ± 0.0046,2.016 ± 0.02
CGAUGU,1.98 ± 0.0073,1.99 ± 0.047
CGAUGC,2.039 ± 0.0072,2.008 ± 0.0096
CGAUGG,1.928 ± 0.017,1.972 ± 0.019
CGAUGA,2.011 ± 0.0023,2.02 ± 0.078
GGCGUU,2.08 ± 0.027,2.06 ± 0.034
GGCGUG,2.071 ± 0.0047,2.06 ± 0.033
GGCGUC,2.058 ± 0.012,2.01 ± 0.047
GGCGUA,2.068 ± 0.004,2.04 ± 0.03
AGCAUU,2.012 ± 0.0048,2.01 ± 0.028
AGCAUG,1.957 ± 0.004,2.03 ± 0.018
AGCAUA,1.985 ± 0.014,2.017 ± 0.016
AGCAUC,2.082 ± 0.012,2.0495 ± 0.0016

Variant,normalized RNA/DNA level without ligand (log10) [1],normalized RNA/DNA level with ligand (log10) [2]
CGCCCC,2.082 ± 0.017,2.04 ± 0.057
CGCCCU,2.09 ± 0.04,2.092 ± 0.017
CGCCCG,2.03 ± 0.029,2.031 ± 0.0094
CGCCCA,2.068 ± 0.0022,2.06 ± 0.033
CGCUCA,2.05 ± 0.022,2.038 ± 0.008
UGCGGA,1.886 ± 0.0066,2.01 ± 0.04
UGCGGC,1.998 ± 0.006,1.98 ± 0.045
UGCGGU,1.976 ± 0.014,2.03 ± 0.025
UGCAGC,1.982 ± 0.0063,2.012 ± 0.018
UGCAGU,1.9094 ± 0.0015,1.96 ± 0.026
CGAGUC,2.053 ± 0.0089,2.037 ± 0.0081
CGAGUA,1.965 ± 0.0014,2 ± 0.04
GGCACA,2.085 ± 0.009,2.03 ± 0.031
GGCACG,2.047 ± 0.014,2.03 ± 0.038
AGAUUG,1.89 ± 0.014,2.004 ± 0.018
AGAUUU,2.0581 ± 0.0011,2.04 ± 0.024
CGCAAA,1.9697 ± 0.001,1.988 ± 0.0069
CGCAAG,2.011 ± 0.0045,2.02 ± 0.025
CGCAAU,1.9357 ± 0.0015,1.968 ± 0.014
AGCCCU,2.078 ± 0.009,2.05 ± 0.042
AGCCCG,2.02 ± 0.0096,2.02 ± 0.0065
AGCCCC,2.051 ± 0.0083,2 ± 0.036
AGCCCA,2.045 ± 0.0089,2.02 ± 0.028

Variant,normalized RNA/DNA level without ligand (log10) [1],normalized RNA/DNA level with ligand (log10) [2]
CGCGAU,1.939 ± 0.0057,1.97 ± 0.041
CGCGAA,1.9769 ± 0.0003,2.01 ± 0.031
CGCGAC,2.0427 ± 0.0011,2.04 ± 0.029
CGCGAG,1.98 ± 0.039,2 ± 0.037
AGCCUU,2.0374 ± 0.0006,2.02 ± 0.037
AGCCUC,2.049 ± 0.012,2.03 ± 0.029
CGCUAC,2.0081 ± 0.001,2.03 ± 0.048
CGCUAA,1.97 ± 0.019,1.99 ± 0.055
CGCUAG,2.007 ± 0.0038,2.025 ± 0.011
CGCUAU,1.981 ± 0.0029,2 ± 0.024
GGCGGC,2.012 ± 0.018,2.014 ± 0.013
GGCGGU,2.06 ± 0.026,2.03 ± 0.037
GGCGGG,2.1126 ± 0.00086,2.08 ± 0.028
GGCGGA,2.064 ± 0.0089,2.021 ± 0.016
CGCGCG,1.995 ± 0.016,1.95 ± 0.1
CGCGCU,2.08 ± 0.043,2.05 ± 0.047
CGCGCC,2.096 ± 0.0053,2.0477 ± 0.00068
CGCGCA,2.036 ± 0.014,2.04 ± 0.026
AGCAAG,1.935 ± 0.0032,2.01 ± 0.025
AGCAAC,2.004 ± 0.0095,2.01 ± 0.038
AGCAAU,1.995 ± 0.0032,2.01 ± 0.033
UGAGGU,1.918 ± 0.017,2.02 ± 0.032
CGCCGG,2.03 ± 0.026,2.034 ± 0.017

# — the supplement of paper PMC6757056
